The text below walks through data of publication PMC13078889.

For series [1], the system named is LARP6. As to the kind of experiment: TR-FRET competition. The following applies: vs DIG-labeled A1 RNA; not in the material.
Series [2] relates to LARP6. Kind of series: ITC. The following applies: not in the material.

Consider A1 RNA (COL1A1 5'SL, 48 nt), for which, in the series on LARP6 [1], the IC50 came to 6.84 nM.

For the substance COL1A1-5'SL (A1), ITC, in the series on LARP6 [2] (only stated as higher Kd than COL1A1-TIS, value in Table 2 not in material), the dissociation constant (Kd) is greater than 400 nM.

Turning to COL1A1-TIS, in the series on LARP6 [2], the Kd was determined as 400 nM. Further, in the series on LARP6 [1], the IC50 was 2.71 nM.
